# From patent US8128802B2, “Analysis apparatus and analysis method for glycosylated hemoglobin” (OJI Paper Co., Ltd, priority 2005, dated 2012)
# B1: Proteinase K: protease from Tritirachium album, Sigma-Aldrich Co. (protein, UniProt P06873 106-384, looked up)
# Proteinase K: AAQTNAPWGLARISSTSPGTSTYYYDESAGQGSCVYVIDTGIEASHPEFEGRAQMVKTYYYSSRDGNGHGTHCAGTVGSRTYGVAKKTQLFGVKVLDDNGSGQYSTIIAGMDFVASDKNNRNCPKGVVASLSLGGGYSSSVNSAAARLQSSGVMVAVAAGNNNADARNYSPASEPSVCTVGASDRYDRRSSFSNYGSVLDIFGPGTSILSTWIGGSTRSISGTSMATPHVAGLAAYLMTLGKTTAASACRYIADTANKGDLSNIPFGTVNLLAYNNYQA
# Test system: human hemoglobin
# Experiment: Proteolysis of human hemoglobin by proteases, fructosyl amino acid detected (Comparative Example 3)
# Format: biochemical
# Conditions: 1 mg/mL protease, 37° C. for 30 minutes; assay apparatus 2
# Experimental: FIG. 2 was the flow type assay apparatus for fructosyl amino acid with the dialysis module. The buffer B was pumped out from the buffer tank (24) using the pump (25), and a 100 μL portion of the sample was injected using the valve (4). The protease-immobilized enzyme column (14), the second immobilized enzyme column (19), the electrode for hydrogen peroxide (20) and the flow type calorimeter (16) were not disposed. The fructosyl amino acid oxidase-immobilized column was placed in the first immobilized enzyme column (17). The injected sample transferred with the flowing buffer B, was carried to the dialysis module (27) in the incubator (13), and only the components with low molecular weight in the sample were permeated through the regenerated cellulose membrane with the membrane thickness of 20 μm and molecular weight cut off of 12000 to 14000 to a detection system (17, 18) of the fructosyl amino acid. Since the buffer A was pumped out from the buffer tank (1) by the pump (2), the components with low molecular weight in the sample dialyzed by the dialysis module passed through the fructosyl amino acid oxidase-immobilized column (17) and the electrode for hydrogen peroxide (18), and hydrogen peroxide produced from the fructosyl amino acid in the sample was detected. […]
molecule,measurement,value
B1,Result (detected value of the fructosyl amino acid after proteolysis),C (the detected value of less than 20 pA)
